Assay results taken from patent US20220009996A1 (NORTHWESTERN UNIVERSITY, published 2022).

T1: Recombinant Human VCAM-1/CD106 Fc chimera protein (R&D Systems) (human, UniProt P19320 25-698)
T1 construct: Bought from R&D Systems; also called VCAM-1 protein; not shown: Fc part (and any linker or His tag) of the bought chimera is not described
T1 sequence (looked up): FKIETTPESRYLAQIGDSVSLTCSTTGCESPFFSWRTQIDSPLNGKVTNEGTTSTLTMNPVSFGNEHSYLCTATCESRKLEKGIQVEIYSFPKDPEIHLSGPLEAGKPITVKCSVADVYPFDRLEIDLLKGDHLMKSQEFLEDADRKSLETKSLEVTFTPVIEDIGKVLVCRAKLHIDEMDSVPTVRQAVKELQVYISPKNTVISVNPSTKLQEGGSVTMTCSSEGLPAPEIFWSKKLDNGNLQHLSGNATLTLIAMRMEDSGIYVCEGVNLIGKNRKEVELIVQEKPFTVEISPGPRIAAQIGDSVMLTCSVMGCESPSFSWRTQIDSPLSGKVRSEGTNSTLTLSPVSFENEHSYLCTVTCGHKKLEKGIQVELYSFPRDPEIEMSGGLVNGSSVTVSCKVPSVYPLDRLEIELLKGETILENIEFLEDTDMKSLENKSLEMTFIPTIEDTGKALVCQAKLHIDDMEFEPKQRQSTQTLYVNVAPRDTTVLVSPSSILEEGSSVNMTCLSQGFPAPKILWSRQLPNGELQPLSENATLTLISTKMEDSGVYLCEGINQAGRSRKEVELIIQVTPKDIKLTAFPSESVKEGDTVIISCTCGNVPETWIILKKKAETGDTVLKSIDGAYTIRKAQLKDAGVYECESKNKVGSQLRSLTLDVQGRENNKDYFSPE


Legend:
[1] = target: T1, Recombinant Human VCAM-1/CD106 Fc …; assay: bio-layer interferometry (BLItz): VCAM-1 Fc chimera immobilised on an Anti-Penta-HIS biosensor, PA nanofibers in DPBS as analyte, 300 s association and 300 s dissociation
[2] = target: T1, Recombinant Human VCAM-1/CD106 Fc …; assay: BLI (BLItz), VCAM-1 Fc chimera immobilized on Anti-Penta-HIS biosensor, serial dilutions of PA nanofibers

| binding result [1] | Kd [2] [nM] | Binder |
| --- | --- | --- |
| no binding (tested: 100 µM) | – | VVVAAAEEE (HELM PEPTIDE1{[CCCCCCCCCCCCCCCC(=O)[*:2]].V.V.V.A.A.A.E.E.E.[am]}$$$$V2.0; SMILES CCCCCCCCCCCCCCCC(=O)N[C@H](C(=O)N[C@H](C(=O)N[C@H](C(=O)N[C@@H](C)C(=O)N[C@@H](C)C(=O)N[C@@H](C)C(=O)N[C@@H](CCC(=O)O)C(=O)N[C@@H](CCC(=O)O)C(=O)N[C@@H](CCC(=O)O)C(N)=O)C(C)C)C(C)C)C(C)C, Peptide amphiphile without targeting moiety, self-assembled into nanofibers; also called filler PA; non-bioactive backbone PA) [backbone PA (C16V3A3E3) nanofibers] |
| no binding (tested: 100 µM) | – | VVVAAAEEEGSGQHPHVK (HELM PEPTIDE1{[CCCCCCCCCCCCCCCC(=O)[*:2]].V.V.V.A.A.A.E.E.E.G.S.G.Q.H.P.H.V.K.[am]}$$$$V2.0; SMILES CCCCCCCCCCCCCCCC(=O)N[C@H](C(=O)N[C@H](C(=O)N[C@H](C(=O)N[C@@H](C)C(=O)N[C@@H](C)C(=O)N[C@@H](C)C(=O)N[C@@H](CCC(=O)O)C(=O)N[C@@H](CCC(=O)O)C(=O)N[C@@H](CCC(=O)O)C(=O)NCC(=O)N[C@@H](CO)C(=O)NCC(=O)N[C@@H](CCC(N)=O)C(=O)N[C@@H](Cc1c[nH]cn1)C(=O)N1CCC[C@H]1C(=O)N[C@@H](Cc1c[nH]cn1)C(=O)N[C@H](C(=O)N[C@@H](CCCCN)C(N)=O)C(C)C)C(C)C)C(C)C)C(C)C, formed relatively short, closely packed fibers; also called scrambled control PA) [VCAMb-scr PA (C16V3A3E3GSGQHPHVK) nanofibers] |
| – | 280 | VVVAAAEEEGSGVHPKQH (HELM PEPTIDE1{[CCCCCCCCCCCCCCCC(=O)[*:2]].V.V.V.A.A.A.E.E.E.G.S.G.V.H.P.K.Q.H.[am]}$$$$V2.0; SMILES CCCCCCCCCCCCCCCC(=O)N[C@H](C(=O)N[C@H](C(=O)N[C@H](C(=O)N[C@@H](C)C(=O)N[C@@H](C)C(=O)N[C@@H](C)C(=O)N[C@@H](CCC(=O)O)C(=O)N[C@@H](CCC(=O)O)C(=O)N[C@@H](CCC(=O)O)C(=O)NCC(=O)N[C@@H](CO)C(=O)NCC(=O)N[C@H](C(=O)N[C@@H](Cc1c[nH]cn1)C(=O)N1CCC[C@H]1C(=O)N[C@@H](CCCCN)C(=O)N[C@@H](CCC(N)=O)C(=O)N[C@@H](Cc1c[nH]cn1)C(N)=O)C(C)C)C(C)C)C(C)C)C(C)C, Peptide amphiphile, self-assembled into supramolecular nanofibers after annealing; tested as nanofibers, so the number of copies in one assembly is not defined; In the microfluidic assay it stood as a coating on lymphocytes; also called VCAMb PA; VCAM-1 targeting PA) [VCAM-1 binding PA (C16V3A3E3GSGVHPKQH) nanofibers] |
